Experimental findings from US10507233B2, “Universal N-glycan binding reagent” (New England Biolabs, Inc., priority 2014, dated 2019) are described below.

For assay [1], the target named is T1, SNAP-Fbs (SNAP-wtFbs): human Fbs sugar binding domain, positions 113 to 296, wild type, SEQ ID NO: 2, fused to SNAP-tag (AGT variant, SEQ ID NO: 4), fusion SEQ ID NO: 3 (Homo sapiens, UniProt Q9UK22).
T1 construct: made in house; host or cells: E. coli, pSNAP-tag(T7)-2 vector
T1 sequence (Q9UK22 with tags, fused parts or gaps): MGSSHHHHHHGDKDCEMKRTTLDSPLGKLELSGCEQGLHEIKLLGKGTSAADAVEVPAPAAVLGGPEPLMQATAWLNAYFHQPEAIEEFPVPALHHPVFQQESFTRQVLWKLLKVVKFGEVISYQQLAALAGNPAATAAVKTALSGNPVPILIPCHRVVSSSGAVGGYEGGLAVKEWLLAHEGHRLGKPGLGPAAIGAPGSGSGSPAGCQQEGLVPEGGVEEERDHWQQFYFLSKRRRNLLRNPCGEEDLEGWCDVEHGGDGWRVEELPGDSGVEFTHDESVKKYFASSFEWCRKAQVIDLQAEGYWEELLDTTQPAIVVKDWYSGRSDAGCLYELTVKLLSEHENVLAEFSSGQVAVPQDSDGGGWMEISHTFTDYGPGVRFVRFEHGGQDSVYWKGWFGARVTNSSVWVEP
Put plainly: Isothermal titration calorimetry of glycan / sialylglycopeptide binding to SNAP-Fbs in solution. The settings on record: ITC, low salt buffer (50 mM NaCl, 20 mM Tris-HCl, 1 mM EDTA, pH 7.5), 90 μM glycan into 9 μM Fbs, single site binding model. On the procedure: Fbs binds to N-glycan and N-glycan with fucose modification at the reducing end of GlcNAc. Isothermal titration calorimetry was used to assay the interaction between Fbs and core structure glycans. Man3GlcNAc2 (M3N2) and Man3GlcNAc2 with (alpha 1-6) fucose modification at the reducing end of GlcNAc (M3N2F) were used as binding substrates (both substrates were purchased from Prozyme, Hayward, Calif. SNAP-Fbs was dialysed against low salt buffer and the glycans were also dissolved in the same dialysis buffer. A Nano ITC instrument (TA Instruments, Lindon, Utah) with 170 μl cell volume and 50 μl buret volume was used. Every 300 seconds, 2.97 μl of 90 μM glycan was automatically injected into 9 μM Fbs solution. The data was fitted using a single site binding model (Nanoanalyze software (TA Instruments, Lindon, Utah)), and the Kd was calculated.
Isothermal titration calorimetry analysis of SGP (Fushimi Pharmaceutical Co., Marugame, Japan) binding to SNAP-Fbs. SNAP-Fbs was dialysed against low salt buffer and SGP was also dissolved in the same low salt buffer. A Nano ITC instrument with 170 μl cell volume and 50 μl buret volume was used. Every 300 seconds, 2.97 μl of 270 μM SGP was automatically injected into 27 μM Fbs solution. The data was fitted using a single site binding model (Nanoanalyze software), and Kd was calculated. […]

Assay [2] relates to Fetuin and RNase B. Put plainly: Pull-down of Fetuin and RNase B mixture by immobilized Fbs beads. It counts as binding. As to conditions: input defined as 1. On the procedure:
The same amount of wild-type Fbs, Fbs GYR mutant and PPRYR mutant proteins were conjugated to SNAP capture resin using the conditions described in Example 2 (FIG. 10B). Binding to RNase B with high mannose N-glycan and Fetuin with sialyated complex N-glycan linked glycomolecules was analyzed in a single experiment. A mixture of denatured Fetuin and RNase B (denatured by boiling for 10 minutes in the presence of 1× Rapid PNGase F buffer (New England Biolabs, Ipswich, Mass.) were pulled down by the immobilized Fbs beads conjugated with equal amount of WT, GYR or PPRYR Fbs proteins (FIGS. 10A and 10B). The bound fetuin and RNase B were eluted by 1× gel loading buffer, and analyzed by -PAGE/Coomassie blue staining. The amount of fetuin or RNase B on -PAGE gels were quantified using Image J. The ratio of Fetuin to RNase B (Fetuin/RNase B) is arbitrarily defined as 1 in the input (FIG. 10A, Lane 7 and 10C). In low salt volatile buffer conditions, wild-type Fbs pulled down a very small amount of Fetuin (FIG. 10A, Lane1), and the Fetuin/RNase B is only 0.29 (FIG. 10C), which indicates biased N-glycan linked glycomolecule binding. […]

Assay [3] deals with T2, SGP-TMR (Homo sapiens, UniProt Q9UK22).
T2 construct: His6 (N); made in house; host or cells: E. coli
T2 sequence (Q9UK22 with tags, fused parts or gaps): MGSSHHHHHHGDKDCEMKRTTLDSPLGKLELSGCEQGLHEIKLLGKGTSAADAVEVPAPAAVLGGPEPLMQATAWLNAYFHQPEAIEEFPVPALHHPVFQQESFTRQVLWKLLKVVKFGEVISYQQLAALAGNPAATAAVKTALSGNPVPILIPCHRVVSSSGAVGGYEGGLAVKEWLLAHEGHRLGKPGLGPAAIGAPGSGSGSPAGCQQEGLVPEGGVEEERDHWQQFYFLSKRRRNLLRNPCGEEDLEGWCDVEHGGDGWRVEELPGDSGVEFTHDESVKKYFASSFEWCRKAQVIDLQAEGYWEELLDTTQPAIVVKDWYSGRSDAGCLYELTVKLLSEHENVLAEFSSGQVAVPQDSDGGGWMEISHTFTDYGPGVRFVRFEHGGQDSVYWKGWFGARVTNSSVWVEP
The assay is described as follows: Elution of bound SGP-TMR from Fbs beads. The settings on record: 100 ul 2 M ammonium bicarbonate. The procedure:
N-glycan linked glycomolecules reversibly binds to Fbs beads. Different reagents were tested for releasing bound N-linked glycopeptides from Fbs beads. 100 μl Fbs beads with bound SGP-TMR were collected, washed with 300 μl low salt binding buffer once, and divided into three aliquots (30 μl beads each aliquot). 100 ul of 2 M ammonium bicarbonate (NH4HCO3), 50% acetonitrile, or 1% acetic acid were added to Fbs beads with bound SGP-TMR to elute SGP-TMR. The beads were centrifuged and supernatants were collected. The solvent in the supernatant was removed by vacuum evaporation using a speedvac, and SGP-TMR was reconstituted in low salt buffer. SGP-levels were measured as described in Example 9. […] 1% Acetic acid released approximately 65% of SGP-TMR. In contrast, less than 30% of bound N-glycan linked glycomolecules were released with 2 M ammonium bicarbonate.

Assay [4] is described as follows: Binding of 2-AB labeled M3N2 to SNAP-Fbs beads. As to conditions: low salt buffer, versus SNAP control beads. The source says: When PNGase F is used to trim N-glycans away from the peptides or proteins, the terminal GlcNAc residue becomes available for modification. A common modification is fluorophore labeling using 2-AB dye. The primary amino group of the dye performs a nucleophilic attack on the carbonyl carbon of the acyclic reducing terminal residue to form a partially stable Schiff's base. […] The conserved terminal GlcNAc residue is thus referred to as the “reducing end” of a glycan species. Upon 2-AB labeling, the carbohydrate ring structure is no longer capable of forming. Fifty picomoles of 2-AB labeled M3N2 in low salt buffer were incubated with SNAP-Fbs beads or SNAP control beads (SNAP Capture beads conjugated to SNAP-tag Purified Protein, New England Biolabs, Ipswich, Mass.).

In assay [5] the target is T3, RNase B tryptic digest spiked with SGP (Homo sapiens, UniProt Q9UK22).
T3 construct: His6 (N); made in house; host or cells: E. coli
T3 sequence (Q9UK22 with tags, fused parts or gaps): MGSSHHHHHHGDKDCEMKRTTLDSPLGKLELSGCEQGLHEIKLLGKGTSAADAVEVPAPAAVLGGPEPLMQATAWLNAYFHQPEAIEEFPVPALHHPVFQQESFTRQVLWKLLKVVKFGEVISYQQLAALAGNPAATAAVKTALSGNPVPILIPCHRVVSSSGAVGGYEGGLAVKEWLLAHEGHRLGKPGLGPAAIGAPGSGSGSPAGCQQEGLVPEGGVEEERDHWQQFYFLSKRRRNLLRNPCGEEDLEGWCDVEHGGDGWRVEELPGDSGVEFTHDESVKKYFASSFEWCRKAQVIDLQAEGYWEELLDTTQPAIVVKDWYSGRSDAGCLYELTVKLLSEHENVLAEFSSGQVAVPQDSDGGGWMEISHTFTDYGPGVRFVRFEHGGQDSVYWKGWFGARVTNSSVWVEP
Put plainly: Enrichment of N-glycopeptides from RNase B tryptic digest spiked with SGP (LC-MS). It counts as binding. As to conditions: low salt or high salt volatile buffer, TIC. The source says: Fbs beads were used to capture and enrich N-glycopeptides from a complex mixture. The complex mixture was a tryptic digest of RNase B spiked with SGP to serve as a complex, sialylated glycopeptide. RNase B contains several non-glycosylated peptides and several different high mannose N-glycopeptides (labeled in the enlargement as: M5N2, M6N2). One hundred eighty-five micrograms RNase B was digested with 4 micrograms trypsin (New England Biolabs, Ipswich, Mass.) in trypsin digestion buffer and then filtered with a 10 kDa Microcon 10 centrifugal filter unit (Millipore, Billerica, Mass.) to remove trypsin and any undigested RNase B. PMSF (1 mM final concentration) was added to inhibit any residual trypsin. 100 micrograms SGP was added to the RNase B digest. Then immobilized binding reagent, SNAP-Fbs beads in this example, was mixed with the complex mixture and incubated at 4° C. for 1 hour in the presence of either low salt volatile buffer or high salt volatile buffer. The beads were washed with low salt volatile buffer or high salt volatile buffer, respectively. The bound N-glycopeptides were eluted using 50% acetonitrile, then lyophilized and analyzed by mass spec (LC-MS method). […] The dotted line indicates the chromatogram of the input mixture without enrichment. […]
The different peptides and N-glycopeptides present in the complex mixture described in Example 11 were quantified.

Assay [6] has as its system Fetuin. Put plainly: Fetuin pull-down assay (Affigel-Fetuin beads, SDS-PAGE, ImageJ). It counts as binding. The settings on record: low salt buffer, cell lysates. An excerpt: Fetuin, which contains sialylated complex N-linked glycans, served as the complex N-linked glycomolecule in this example. Fetuin was conjugated to Affigel 15 resin (Bio-Rad, Hercules, Calif.), and then denatured by 6 M Guanidine HCL. After denaturation, the fetuin beads were washed with 50 bead volumes of low salt buffer to remove Guanidine HCL. This immobilized denatured Fetuin was used to screen Fbs mutants for improved affinity to complex N-linked glycomolecules in low salt conditions in a fetuin pull-down assay. In this assay, cell lysates containing the same amount of wild type or mutant Fbs protein were incubated with the same amount of fetuin beads at 4° C. for 1 hour. After incubation, the fetuin beads were washed three times with low salt buffer. The bound Fbs proteins were eluted by 1× gel loading buffer, and analyzed by SDS-PAGE. In the fetuin pull-down assay, the amount of Fbs mutant protein shown on the SDS-PAGE gel indicates the relative affinity of each Fbs mutant for binding to a complex N-linked glycomolecule. Fbs amino acid residue serine 155 was mutated to alanine to assess the effect on the interaction with complex N-linked glycomolecules. Mutation of Ser155 to alanine was expected to reduce the affinity of the interaction between Fbs and fetuin according to the published report of Tanaka et al. (Tanaka, et al. PNAS). […]

Read-outs that look alike come from different tables or passages of the source.

Broadly, the Kd is the constant that tells how readily two partners part at equilibrium. As for `CC(=O)N[C@H]1[C@H](O[C@H]2[C@H](O)[C@@H](NC(C)=O)C(O)O[C@@H]2CO)O[C@H](CO)[C@@H](O[C@@H]2O[C@H](CO[C@H]3O[C@H](CO)[C@@H](O)[C@H](O)[C@@H]3O)[C@@H](O)[C@H](O[C@H]3O[C@H](CO)[C@@H](O)[C@H](O)[C@@H]3O)[C@@H]2O)[C@@H]1O` (stereo partly drawn) [M3N2, Man(α1-3)(Man(α1-6))Man(β1-4)GlcNAc(β1-4)GlcNAc], the Kd in assay [1] (read-out: Kd M3N2) was 123 ± 36 nM.
For `CC(=O)N[C@H]1[C@H](O[C@H]2[C@H](O)[C@@H](NC(C)=O)C(O)O[C@@H]2CO[C@@H]2O[C@@H](C)[C@@H](O)[C@@H](O)[C@@H]2O)O[C@H](CO)[C@@H](O[C@@H]2O[C@H](CO[C@H]3O[C@H](CO)[C@@H](O)[C@H](O)[C@@H]3O)[C@@H](O)[C@H](O[C@H]3O[C@H](CO)[C@@H](O)[C@H](O)[C@@H]3O)[C@@H]2O)[C@@H]1O` (stereo partly drawn) [M3N2F], the Kd in assay [1] (read-out: Kd M3N2F) came to 128 ± 37 nM.

B1: wtFbs: sugar binding domain (position 113 to 296) of human Fbs, SEQ ID NO: 2, tested as SNAP-tag fusion (SEQ ID NO: 3), free or on BG beads (protein)
chain: MGSSHHHHHHGDKDCEMKRTTLDSPLGKLELSGCEQGLHEIKLLGKGTSAADAVEVPAPAAVLGGPEPLMQATAWLNAYFHQPEAIEEFPVPALHHPVFQQESFTRQVLWKLLKVVKFGEVISYQQLAALAGNPAATAAVKTALSGNPVPILIPCHRVVSSSGAVGGYEGGLAVKEWLLAHEGHRLGKPGLGPAAIGAPGSGSGSPAGCQQEGLVPEGGVEEERDHWQQFYFLSKRRRNLLRNPCGEEDLEGWCDVEHGGDGWRVEELPGDSGVEFTHDESVKKYFASSFEWCRKAQVIDLQAEGYWEELLDTTQPAIVVKDWYSGRSDAGCLYELTVKLLSEHENVLAEFSSGQVAVPQDSDGGGWMEISHTFTDYGPGVRFVRFEHGGQDSVYWKGWFGARVTNSSVWVEP
modifications: SNAP-tag fusion; optionally on BG beads
For B1, the “Fetuin/RNase B ratio” value in assay [2] (high salt volatile buffer (2 M ammonium acetate pH 7.5)) was determined as 0.92; in assay [2] (low salt volatile buffer (50 mM ammonium acetate pH 7.5)) it was 0.29. For the same molecule, the “bound N-glycan linked glycomolecules released” value in assay [3] was “less than 30%”. Moreover, the “binding of 2-AB labeled M3N2” value in assay [4] is “disrupts the interaction”. Further, in assay [5], the “enrichment of non-glycosylated peptides” value is given as “not enriched”.

B2: S155A: human Fbs SBD variant with S155A mutation (protein)
chain: FYFLSKRRRNLLRNPCGEEDLEGWCDVEHGGDGWRVEELPGDAGVEFTHDESVKKYFASSFEWCRKAQVIDLQAEGYWEELLDTTQPAIVVKDWYSGRSDAGCLYELTVKLLSEHENVLAEFSSGQVAVPQDSDGGGWMEISHTFTDYGPGVRFVRFEHGGQDSVYWKGWFGARVTNSSVWVEP
modifications: left off: large carriers
notes: human Fbs SBD variant with S155A mutation
For B2, the “fetuin pull-down relative to wild type Fbs” value in assay [6] came to 1.5 fold.

B3: S155G: human Fbs SBD variant with S155G mutation (protein)
chain: FYFLSKRRRNLLRNPCGEEDLEGWCDVEHGGDGWRVEELPGDGGVEFTHDESVKKYFASSFEWCRKAQVIDLQAEGYWEELLDTTQPAIVVKDWYSGRSDAGCLYELTVKLLSEHENVLAEFSSGQVAVPQDSDGGGWMEISHTFTDYGPGVRFVRFEHGGQDSVYWKGWFGARVTNSSVWVEP
modifications: left off: large carriers
notes: human Fbs SBD variant with S155G mutation
As for B3, the “fetuin pull-down relative to wild type Fbs” value in assay [6] came out at 2.0 fold.
